The series concerns the molecule itself. In words: yeast two-hybrid system and immunoprecipitation.

B1: p35 isoform of p53 derived from rat cardiac myocytes (other)
chain: MEDSQSDMSIELPLSQETFSCLWKLLPPDDILPTTATGSPNSMEDLFLPQDVAELLEGPEEALQVSAPAAQEPGTEAPAPVAPASATPWPLSSSVPSQKTYQGNYGFHLGFLQSGTAKSVMCTYSISLNKLFCQLAKTCPVQLWVTSTPPPGTRVRAMAIYKKSQHMTEVVRRCPHHERCSDGDGLAPPQHLIRVEGNPYAEYLDDRQTFRHSVVVPYEPPEVGSDYTTIHYKYMCNSSCMGGMNRRPILTIITLEDSRSVGVSASACSES
On to B1, for which the binding result is “no binding”.

For the origin of these results see patent publication US6294384, “Compositions and methods based upon an isoform of p53” (The Brigham and Women's Hospital Inc., dated 2001).
